Experimental data as given in the supplement of paper PMC12042874.
± gives the uncertainty stated by the source.

Assay: amyloid nucleation score (Sup35N fusion, yeast selection) (log enrichment); library NNK3; higher = more nucleation; inactive = no reads after selection
Procedure, shortened: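 Growth for 7 days at 30°C on medium lacking adenine and uracil followed a 24-hour induction with 100 μM copper sulfate of psi-negative yeast expressing peptides of 20 random codons fused to Sup35N. Input and output plasmid inserts were sequenced with Illumina, and sequences with under 100 input reads were excluded. Nucleation score is the DiMSum log enrichment of output over input reads, centred on the mode score of non-aggregating sequences.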

Substance | amyloid nucleation score
MCEMVFTWDSWLLRRIRQDW | 1.5 ± 0.087
MCFKTEYSRSPGYIAN | inactive
MCGCARLFVSLSATAKTNP | -0.003 ± 1.1
MCGLVTFWRALRGNRGRY | inactive
MCGQE | inactive
MCRLDA | 2.38 ± 0.073
MCRMLFISGIQNCDPDVIMH | 1.15 ± 0.12
MCSETWIYALSICDNLCRD | 1.29 ± 0.16
MCSRCVAKLATTPRLGFNDS | inactive
MDGPGVTFCPEVLDKWDGSI | -0.205 ± 1.4
MEFHYWTGVCQVSK | inactive
MEYWYYDMD | inactive
MFCMYTRDREIYLVETLLYV | inactive
MFKNILCVHVLTSAGT | inactive
MFLFKVTDTE | 1.88 ± 0.098
MFQFVFSVQMSGSAFRMFMK | inactive
MFRDIWLFGPISWIYECCRS | 2.36 ± 0.091
MFSCWYIISWCIEVHDGVKI | inactive
MGGVCMSMS | inactive
MGNLVNSNVGSTLSKKIRND | 0.351 ± 0.35
MGQRLLLVSANAWD | inactive
MGTVVTMSMRLSNSVWGVGH | 1.28 ± 0.14
MGVVNFVITGNSYCAKVMLY | inactive
MGYCLGNDGSIKALFLVVNV | inactive

Substance | amyloid nucleation score
MHSTVVEHLLWLTFTPGYKL | inactive
MICSLTSHRKRN | inactive
MIFNHMNKL | inactive
MIFNVDGLDLVPDKVRYYRD | inactive
MIGNITMGLMSLDSGKRSVN | inactive
MIIAFFCDYNGVEG | inactive
MILILY | inactive
MIMYIGVCVSVGLFEDYAYR | 0.044 ± 0.49
MINSCFK | inactive
MINWHSRMSSEG | inactive
MITLDCLNNNI | inactive
MIVNNELCTNLPYLSGAVNR | inactive
MKLDICWLRLSRCYVVVVWV | inactive
MKLINRDFSL | inactive
MKVLYDKVKSVTASIELWFW | inactive
MLCLWFNEFHDVCPT | inactive
MLCTTLRNYMTSSICFIRYQ | inactive
MLHFG | inactive
MLSSCRVFRLFCFNCVTLNR | 0.816 ± 0.16
MLSYYRFWCPVGRVVMMSFW | inactive
MLWYLESWLTLHGTVECNVW | inactive
MMFVGYLSCFSS | 2.38 ± 0.059
MMGIGVACYVKCGFFVYNWG | inactive
MMNILILCVKGMHFGRHKYV | inactive

Substance | amyloid nucleation score
MMNVWLAFAPGML | 0.9 ± 0.14
MMRSVHFFRCRQTHENLLMC | -0.207 ± 0.66
MMTCF | inactive
MNNCTDLYLLVNPRIRFGVM | inactive
MNSVHYNDHPHDAVKFTISI | inactive
MNVFVAQSLRRVHCAHELN | 0.233 ± 0.81
MNYWHNYFSLYDHLLMSKCC | inactive
MPCLYALLYG | inactive
MPSLRRS | inactive
MPWMVATSNM | inactive
MQAQRKYMSMRNRYQVAKVE | inactive
MQICSCYRFSD | 2.45 ± 0.071
MQSAAM | inactive
MRCQNSCRHS | inactive
MRRYIRNIKAHMCVIVRVYL | inactive
MRSLGSAMWR | inactive
MRSYFEDFCGFQAIRS | 1.07 ± 0.14
MRTINIS | inactive
MRVLGLGEAWDDNGLRRLRA | inactive
MRWMGDGMRSTNSSVNSHGL | inactive
MSAGCLLNL | inactive
MSCLG | inactive
MSFRIAKDIMCLVGFSLRCT | inactive
MSFSPQKVVAHFCYWSCMRS | inactive

Substance | amyloid nucleation score
MSHCYYEFARVPKWHERCPS | inactive
MSILMMSL | inactive
MSIVIYARLTWNYDSVFSFG | inactive
MSIYLQSTM | inactive
MSKDFSRGVQLTDRCLLC | inactive
MSKHRMFLSGRLFRANEVRP | inactive
MSLRSSRHTPVDSQISSMEM | inactive
MSMLKFIYFDYSMDSLHIIW | inactive
MSPFADKRHLADILCVHGS | inactive
MSQCFVCRFAFLIN | 1.57 ± 0.067
MSQKEGFSDTGLLLRRSTRS | inactive
MSSISIKGKIYDWMFRFCCR | inactive
MSTMVYRASRCGRLG | 0.399 ± 0.53
MSVIIAIAMYRLFRDRTHPL | inactive
MTGCHCSSVAR | -0.299 ± 0.68
MTLFDWFFLEIKAGWFRMVV | inactive
MTMQKSSIFFLHEAKLNFSA | inactive
MTPFIKNS | inactive
MTRKYQNR | inactive
MVCEKERTWVTSRHWLERYR | -0.203 ± 1.3
MVGVGSKLGLLAATEVWNEI | inactive
MVLLI | -0.031 ± 1
MVRNRNYSLIYGWVPIQDEE | 1.82 ± 0.099
MVSGH | inactive

Substance | amyloid nucleation score
MVVIIFDWIPHLFNLYMYVI | inactive
MVVMRKSVETTYYWLILAIF | inactive
MVVQRNDYIVSVFSTLFPRS | 1.6 ± 0.096
MWLSTVDRHHINSQALENVD | inactive
MWLVFLTKQNYNNKVQTG | inactive
MYCSTYTVFYYAGIRVLCGD | 1.28 ± 0.14
MYFMGLFFMTGVGFSMKEVE | inactive
MYLDIESDMSNTGAE | inactive
MYMIWSWCVQMLVNLNHAMA | inactive
MYSHLNTCTTAKPQVFCSKL | inactive
MYTMSHSGLVLALFDAGSWR | inactive
NACTF | inactive
NAMCR | inactive
NAQWLYCINSD | inactive
NASLI | inactive
NAVLEFTPMFMFRTLSGRRV | inactive
NAYSKNVFQHVGMHTWSWYL | inactive
NAYSSLQWREIVSHIYQSCQ | inactive
NCCNPCFVNLQSR | 2.66 ± 0.066
NCGNAPFGFVRP | inactive
NCIAWYQW | -0.393 ± 0.7
NCINVYGNTNLLRGPVGTSG | inactive
NCLLTFDQNYTRGIPAKI | inactive
NCMYSLSMQREPFYPSRGVD | inactive

Substance | amyloid nucleation score
NCNTVKYGMFGAWSNSAV | 0.313 ± 0.18
NCQLLKLDSGSLSLCRWVHS | inactive
NCRFEGLDKSTS | inactive
NDCRCTIFAAYIKILYKFLG | 1.13 ± 0.097
NDFIVECMTVESS | inactive
NDGFQYRGHRWCLYNHL | inactive
NDQAYMFYIGVYTTLCIGLK | inactive
NDRVIRVGVN | inactive
NDSGAPPLPSGLQPLHH | inactive
NDTFNAK | inactive
NDVKFGSGR | inactive
NEHSYLSGSWYPRSHLIYYC | inactive
NEICEHTSVVLLR | inactive
NEQVGDGLFCP | -0.057 ± 0.75
NFFVTFICAFEEAYMTKQLR | 2 ± 0.082
NFGLFREVGLFIRLWIANAA | inactive
NFGVMLGVNTLSMSSRVVLG | 0.6 ± 0.26
NFKNMEWFLST | inactive
NFLWYCV | 1.75 ± 0.089
NFPNPVVSNLRAYFMD | -0.371 ± 0.96
NFPYLAVFLRGFSFSVIDC | inactive
NFRNRMRVLFSCS | inactive
NGFCCM | inactive
NGFIILADCQMVCLRTSDLM | 1.77 ± 0.065

Substance | amyloid nucleation score
NGFVI | inactive
NGILKPETVRQI | inactive
NGINNCSEIKHVCTGLANPV | inactive
NGLLNRQSTSWWSTLNYCGD | inactive
NGLPARRV | inactive
NGMAFGSRVNRLGGCSEVEV | inactive
NGTNPSYNKNCFSVFVESFN | inactive
NGWNVMYLFMCRVNSARSIL | 1.77 ± 0.081
NHLGM | inactive
NHLLFSIPRSIRWKACVQ | inactive
NHYLT | inactive
NIFDFVFDEFRLAQPMYKCC | inactive
NIFSQWYIISCLFRGKLCEH | 1 ± 0.13
NIFWP | inactive
NIGRNMLRCVNLTT | inactive
NIGWV | -0.568 ± 1.3
NILFWSF | inactive
NILGLKCPSYYPQHVSCGYY | inactive
NILMAGDMHSRA | inactive
NKCSVMCHLDGVTWVPERAV | inactive
